Assay results from US20240148883A1, “Branched Linkers for Antibody-Drug Conjugates and Methods of Use Thereof” (priority 2021, published 2024).
Like-named read-outs stand apart in the source and are kept apart here.

Key:
[1] = Aggregation of conjugates by analytical size exclusion chromatography (SEC): % monomeric / % HMW; assay type: physicochemical
Description: (§1) Methods: Antibodies (15 mg/mL) bearing one or two aldehyde tags (single or double-tagged constructs) were conjugated to linker-payloads at 1.1 or 1.7 mM, respectively. Reactions proceeded for 72 h at 37° C. in 20 mM sodium citrate, 50 mM NaCl pH 5.5 (20/50 buffer) containing 0.85-2.5% DMA. […] After conjugation, free drug was removed using a 30 kD MWCO 0.5 mL Amicon spin concentrator. Samples were added to the spin concentrator, centrifuged at 15,000×g for 7 min, then diluted with 450 μL 20 mM sodium citrate, 50 mM NaCl pH 5.5 and centrifuged again. The process was repeated 10 times. To determine the DAR of the final product, ADCs were examined by analytical chromatography using HIC (Tosoh #14947) or PLRP-RP (Agilent PL1912-1802 1000 A, 8 um, 50×2.1 mm) columns. HIC analysis used mobile phase A: 1.5 M ammonium sulfate, 25 mM sodium phosphate pH 7.0, and mobile phase B: 25% isopropanol, 18.75 mM sodium phosphate pH 7.0. PLRP analysis used mobile phase A: 0.1% trifluoroacetic acid in water, and mobile phase B: 0.1% trifluoroacetic acid in acetonitrile. Prior to PLRP analysis, sample was denatured with the addition of 50 mM DTT, 4 M guanidine HCl (final concentrations) and heating at 37° C. for 30 min. To determine aggregation, samples were analyzed using analytical size exclusion chromatography (SEC; Tosoh #08541) with a mobile phase of 300 mM NaCl, 25 mM sodium phosphate pH 6.8 with 5% isopropanol.

[2] = assay type: physicochemical
Description: as §1

[3] = conjugated to antibody against Target 1
[4] = conjugated to antibody against Target 2
[5] = conjugated to antibody against Target 3
[6] = conjugated to antibody against Target 4
[7] = conjugated to antibody against Target 5
[8] = conjugated to antibody against Target 7
[9] = conjugated to antibody against Target 8
[10] = conjugated to antibody against Target 9
[11] = conjugated to antibody against Target 10

Row | SMILES | % HMW (high-molecular weight species) [1, 3] | % HMW (high-molecular weight species) [1, 4] | % HMW (high-molecular weight species) [1, 5] | % HMW (high-molecular weight species) [1, 6] | % HMW (high-molecular weight species) [1, 7] | % HMW (high-molecular weight species) ([1]; conjugated to antibody against Target 6) | % HMW (high-molecular weight species) [1, 8] | % HMW (high-molecular weight species) [1, 9] | % HMW (high-molecular weight species) [1, 10] | % HMW (high-molecular weight species) [1, 11] | DAR [2, 3] | DAR [2, 4] | DAR [2, 5] | DAR [2, 6] | DAR [2, 7] | DAR [2, 8] | DAR [2, 9] | DAR [2, 10] | DAR [2, 11]
1 | CC[C@@]1(O)C(=O)OCc2c1cc1n(c2=O)Cc2c-1nc1ccccc1c2CCN(C(=O)OCc1ccc(NC(=O)[C@H](C)NC(=O)[C@@H](NC(=O)CCC(=O)Nc2ccc3c(c2)cc(CN(C)NC)n3CCC(=O)N[C@H](C(=O)N[C@@H](C)C(=O)Nc2ccc(COC(=O)N(CCc3c4c(nc5ccccc35)-c3cc5c(c(=O)n3C4)COC(=O)[C@]5(O)CC)C(C)C)cc2O[C@@H]2O[C@H](C(=O)O)[C@@H](O)[C@H](O)[C@H]2O)C(C)C)C(C)C)c(O[C@@H]2O[C@H](C(=O)O)[C@@H](O)[C@H](O)[C@H]2O)c1)C(C)C [Compound 18] | 1.8% | 6.5% | 4.3% | 0.6% | 0.8% | 2.0% | 1.6% | 3.4% | 1.5% | 2.7% | 6.82 | 6.16 | 4.31 | 6.97 | 5.45 | 6.88 | 6.1 | 6.84 | 5.49
2 | CC[C@@]1(O)C(=O)OCc2c1cc1n(c2=O)Cc2c-1nc1ccccc1c2CCN(C(=O)OCc1ccc(NC(=O)[C@H](C)NC(=O)[C@@H](NC(=O)CCOCCOCCOCCOCCNC(=O)CCC(=O)Nc2ccc3c(c2)cc(CN(C)NC)n3CCC(=O)NCCOCCOCCOCCOCCC(=O)N[C@H](C(=O)N[C@@H](C)C(=O)Nc2ccc(COC(=O)N(CCc3c4c(nc5ccccc35)-c3cc5c(c(=O)n3C4)COC(=O)[C@]5(O)CC)C(C)C)cc2O[C@@H]2O[C@H](C(=O)O)[C@@H](O)[C@H](O)[C@H]2O)C(C)C)C(C)C)c(O[C@@H]2O[C@H](C(=O)O)[C@@H](O)[C@H](O)[C@H]2O)c1)C(C)C [Compound 36] |  | 4.1% | 6.1% |  | 3.3% |  |  | 3.5% | 2.2% | 6.2% |  | 6.78 | 6.33 |  | 6.88 |  | 6.55 | 6.32 | 6.33
